Data: publication PMC4824444

Legend:
[1] = biological target: kappa-opioid peptide (KOP) receptor (human (endogenous in THP-1)) (UniProt P41145)
[2] = biological target: kappa-opioid peptide (KOP) receptor (human (endogenous in THP-1)) (UniProt P41145); remark: listed apart in the source

UniProt P41145, sequence (P41145 whole entry): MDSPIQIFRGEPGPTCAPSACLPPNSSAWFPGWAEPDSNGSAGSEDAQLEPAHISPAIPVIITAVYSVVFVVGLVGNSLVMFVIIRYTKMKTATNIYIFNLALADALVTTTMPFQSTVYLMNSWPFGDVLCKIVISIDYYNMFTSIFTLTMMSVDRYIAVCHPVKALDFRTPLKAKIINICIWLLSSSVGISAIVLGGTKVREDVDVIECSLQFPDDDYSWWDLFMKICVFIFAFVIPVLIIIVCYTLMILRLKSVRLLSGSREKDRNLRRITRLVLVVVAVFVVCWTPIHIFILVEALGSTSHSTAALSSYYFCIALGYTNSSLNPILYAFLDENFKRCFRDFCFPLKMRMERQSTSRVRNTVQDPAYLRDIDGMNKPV

Dynorphin 1-7 (peptide)
reduction of LPS-stimulated IL-1β and TNF-α release from differentiated THP-1 cells by DYN 1-7 (0.1 μM, 1 nM, 10 pM; 24 hr; AlphaLISA); reversed by ML-190 at 10 pM (IL-1β, TNF-α) and at 1 nM (TNF-α) [1]: 15 to 30%
inhibition of LPS-stimulated NF-κB/p65 nuclear translocation in differentiated THP-1 cells by DYN 1-7 at 10 nM, relative to the LPS control group; reversed by the KOP receptor antagonist ML-190 (1 μM) [2]: 44%
